Legend:
[1] = system: tat 37-mer peptide (tat37); assay: Polyacrylamide gel mobility shift assay of TAR-tat binding (tat37); design: species or system HIV; conditions: tat peptide not specified
Protocol: All dilutions of [5'-^32 P]-TAR RNA stock solution were made into TE, pH 7.5 containing 4 mg pdIdC (Boehringer Mannheim, Indianapolis, Ind.), and all dilutions of stock solutions (in water) of tat 37-mer peptide similarly were made into TE, pH 7.5 containing 500 nM BSA. […] TAR and analogs not made by T7 RNA polymerase synthesis were made by automated chemical oligonucleotide synthesis (indicated by synthesis number in Table 1). Gel mobility shift assays were performed by the addition of [5'-^32 P]-TAR RNA and tat37 at indicated concentrations (Table 1) to a 10 μl reaction containing 10 mM Tris-HCl pH 7.5, 70 mM NaCl, 0.2 mM EDTA, 5% (v/v) glycerol, 500 nM BSA, and 4 mg pdIdC. Each binding mix was incubated for 30 min at 4° C. and then loaded directly onto a 10% (75:1 acrylamide:bisacrylamide) native PAG. Electrophoresis was performed using 1/2×TBE running buffer at 250V for about 2 hours at 43° C. Radiolabeled TAR RNA was then detected by autoradiography. For preliminary screening experiments, binding parameters were determined by visual estimation of relative intensities of exposure of film by free and specifically bound TAR and TAR mimetics/analogs, followed by appropriate mathematical and graphical analysis.
Further polyacrylamide gel mobility shift assays of TAR binding to tat 37 and tat 25 have been carried out. […]

[2] = system: HIV gene expression (HIV LTR, tat trans-activation); assay: Luciferase assay for inhibition of HIV gene expression in HeLa cells (pHIVluc + pcDEBtat); type: cell-based; conditions: higher dose (7 μM); FIG. 7
Text: pHIVluc is a plasmid which contains the luciferase gene under regulatory control of the HIV LTR. When this plasmid is present in the cell, it responds to the same regulatory signals which activate HIV gene expression by producing the enzyme luciferase. Luciferase can be easily assayed by adding a substrate, luciferin, under the appropriate conditions and measuring the amount of light produced in a luminometer. Thus, specific inhibition of luciferase production in cells is equivalent to inhibiting HIV gene expression, and is predictive of antiviral activity in humans. This assay is similar to that described by Felber B. K. and Pavlakis G. N. (Science, 239:184-187 (1988)), the major difference is simply the enzyme encoded by the reporter gene. To construct this plasmid, the plasmids pT3/T7 luc (Clonetech) and IP-RG-24 (a plasmid which contains the HIV LTR) were digested to completion with KpnI and HindIII. […]
Luciferase activity was then determined for each well as follows. […] The plate was then read in a Dynatec multiwell luminometer which injected 75 ul of Luciferin buffer (25 mM glycylglycine pH 7.8, 15 mM MgSO4, 4 mM EGTA, 4 DTT, 1 mM luciferin) into each well and measured the light emitted. […]

[3] = biological target: T1, HIV-1 Tat 37-mer peptide (tat37) (Human immunodeficiency virus 1, UniProt P69698 SEQ:1-37); assay: EMSA; 1:1 KD; 2-3:1 KD 8000-20000 nM; Table 4 gives <10 nM; 4 C; conditions: protein: synthetic; tags: chemically synthesized peptide, RP HPLC purified (UCSF Biotechnology Resource Core); label: 32P; hairpin, stem-bulge-loop
T1 chain: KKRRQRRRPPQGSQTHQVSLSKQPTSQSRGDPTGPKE

[4] = biological target: T1, HIV-1 Tat 37-mer peptide (tat37); assay: EMSA; 1:1 KD; 2-3:1 KD 8200 nM; Table 4 gives 60 nM; 4 C; conditions: protein: synthetic; tags: chemically synthesized peptide, RP HPLC purified (UCSF Biotechnology Resource Core); label: 32P; hairpin, stem-bulge-loop
[5] = biological target: T2, HIV-1 Tat 25-mer peptide (tat25) (Human immunodeficiency virus 1, UniProt P69698 SEQ:1-25); assay: EMSA; 1:1 KD; repeated in Table 4; conditions: protein: synthetic, tags: peptide fragment, label: 32P, hairpin, stem-bulge-loop
T2 chain: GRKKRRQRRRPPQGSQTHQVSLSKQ

[6] = biological target: T2, HIV-1 Tat 25-mer peptide (tat25); assay: EMSA; 1:1 KD; repeated in Table 4 under tat37 heading; conditions: protein: synthetic, tags: peptide fragment, label: 32P, hairpin, stem-bulge-loop
[7] = biological target: T2, HIV-1 Tat 25-mer peptide (tat25); assay: EMSA; 1:1 KD; 2:1 KD 10-100 nM; 70 mM NaCl, 4 C; conditions: protein: synthetic, tags: peptide fragment, label: 5'-32P, hairpin, stem-bulge-loop
[8] = biological target: T1, HIV-1 Tat 37-mer peptide (tat37); assay: EMSA; 1:1 KD; 2-3:1 KD 200 nM; 10 mM Tris pH 7.5, 70 mM NaCl, 4 C; conditions: protein: synthetic; tags: chemically synthesized peptide, RP HPLC purified (UCSF Biotechnology Resource Core); label: 5'-32P; hairpin, stem-bulge-loop
[9] = biological target: T1, HIV-1 Tat 37-mer peptide (tat37); assay: EMSA; 1:1 KD; 70 mM NaCl, 4 C; conditions: protein: synthetic; tags: chemically synthesized peptide, RP HPLC purified (UCSF Biotechnology Resource Core); label: 32P; hairpin
[10] = biological target: T1, HIV-1 Tat 37-mer peptide (tat37); assay: EMSA; 1:1 KD; 2-3:1 KD 30 nM; 70 mM NaCl, 4 C; conditions: protein: synthetic; tags: chemically synthesized peptide, RP HPLC purified (UCSF Biotechnology Resource Core); label: 32P

2848: 2'-O-methyl stem/loop control with extensive mutations in loop and bulge regions, SEQ ID NO: 8 (GCCAGAGAGCCUUUGGGCUCUCUGGC; all 2'-O-methyl, backbone not given here) [compound 2848]
binding to the tat peptide in vitro [1]: unable to bind
inhibition of HIV gene expression [2]: some non-specific activity

2850: 2'-O-methyl stem/loop control with extensive mutations in loop and bulge regions, SEQ ID NO: 9 (GCCAGAGAGCCUGGGAGCUCCCUGGC; all 2'-O-methyl, backbone not given here) [compound 2850]
binding to the tat peptide in vitro [1]: unable to bind
inhibition of HIV gene expression [2]: some non-specific activity

B1: 2'-OMe P=S deltaTAR #2195 29-mer (16-45 -A17) (ssRNA)
RNA: GCCAGAUCUGAGCCUGGGAGCUCUCUGGC
modifications: 2'-OMe, PS
Kd [3]: 6.33 nM

B2: 2'-OMe deltaTAR #2306 29-mer (16-45 -A17) (ssRNA)
RNA: GCCAGAUCUGAGCCUGGGAGCUCUCUGGC
modifications: 2'-OMe throughout
Kd [4]: 86.6 nM
Kd [5]: 31.6 nM

B3: deltaTAR29 #3153 (16-45 -A17) (ssRNA)
RNA: GCCAGAUCUGAGCCUGGGAGCUCUCUGGC
Kd [6]: 17.3 nM

B4: TAR 59-mer (1-59) (ssRNA)
RNA: GGGUCUCUCUGGUUAGACCAGAUCUGAGCCUGGGAGCUCUCUGGCUAACUAGGGAACCC
Kd [7]: 0.0316 nM
Kd [8]: 40 nM

B5: 5-BrU TAR 59-mer (ssRNA)
RNA: GGGUCUCUCUGGUUAGACCAGAUCUGAGCCUGGGAGCUCUCUGGCUAACUAGGGAACCC
modifications: 5-bromouridine
Kd [9]: 40 nM

B6: P=S TAR 59-mer (ssRNA)
RNA: GGGUCUCUCUGGUUAGACCAGAUCUGAGCCUGGGAGCUCUCUGGCUAACUAGGGAACCC
modifications: PS at A linkages (A:P=S)
Kd [10]: < 10 nM

Reference: patent publication US5736294A, “Reagents and methods for modulating gene expression through RNA mimicry” (ISIS Pharmaceuticals, Inc., priority 1991, dated 1998)
